Experimental findings from article PMC12714728 (npj Viruses, 2025) are described below.

A word on the koff: it is the first-order rate constant of dissociation. The low end stands for slow dissociation, the high end for fast dissociation. As usually defined, the kon is the rate constant with which the complex forms. A high value points to fast association.

One assay has as its target cyclic peptide CP9. The assay is described as follows: SPR. The following applies: both partners purified.
Another assay deals with cyclic peptide CP10. The experiment in a line: SPR. To be noted: both partners purified.

B1: hemagglutinin (HA) ectodomain of A/New Caledonia/20/1999 (H1N1) (domain or fragment)
chain: not shown
modifications: biotin on the BirA site
As for B1, the figures for the koff with cyclic peptide CP9 and with cyclic peptide CP10 were 0.351 s⁻¹ and 0.378 s⁻¹, respectively. Further, the kon came to 108000 M⁻¹ s⁻¹ with cyclic peptide CP9 and 50300 M⁻¹ s⁻¹ with cyclic peptide CP10.
